Tests used:
[1] = biological target: T1, human CD22-ECD-His protein (human, UniProt P20273 20-687); test: SPR (Biacore), antibody captured on Protein A chip, CD22-ECD-His in solution
T1 construct: Recombinant, from HEK293E cells; also called hCD22-ECD-His; human CD22-His protein; not shown: His tag
T1 sequence: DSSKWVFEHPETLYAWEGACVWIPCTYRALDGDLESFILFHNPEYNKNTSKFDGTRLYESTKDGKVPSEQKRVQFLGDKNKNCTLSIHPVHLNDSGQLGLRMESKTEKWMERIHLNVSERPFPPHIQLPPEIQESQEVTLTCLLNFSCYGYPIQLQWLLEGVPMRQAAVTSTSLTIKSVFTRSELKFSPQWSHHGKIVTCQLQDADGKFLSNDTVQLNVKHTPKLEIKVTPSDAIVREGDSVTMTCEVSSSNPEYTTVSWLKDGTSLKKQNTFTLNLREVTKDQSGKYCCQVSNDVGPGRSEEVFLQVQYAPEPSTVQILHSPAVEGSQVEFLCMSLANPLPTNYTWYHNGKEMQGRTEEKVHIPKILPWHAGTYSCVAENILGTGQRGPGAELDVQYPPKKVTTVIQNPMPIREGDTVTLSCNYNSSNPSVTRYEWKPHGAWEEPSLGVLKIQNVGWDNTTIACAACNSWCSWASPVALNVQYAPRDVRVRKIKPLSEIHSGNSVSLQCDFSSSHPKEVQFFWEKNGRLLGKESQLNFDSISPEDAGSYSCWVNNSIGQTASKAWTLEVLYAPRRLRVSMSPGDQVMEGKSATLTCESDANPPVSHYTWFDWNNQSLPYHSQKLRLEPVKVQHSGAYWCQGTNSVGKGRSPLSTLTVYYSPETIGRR
Outline: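 Antibody captured on Protein A chip, then human CD22-ECD-His injected for 240 s at 30 μL/min, 5 concentrations from 200 nM (1:1 dilution), dissociation up to 600 s, in HBS-EP+ at 25° C. Responses double-referenced; apparent KD and kinetic constants fitted to a Langmuir 1:1 model.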

human CD22 domain1-4-His = biological target: T2, human CD22 domain1-4-His (human, UniProt P20273 20-425); test: ELISA, plate coated with human CD22 domain1-4-His
T2 construct: also called hCD22 domain1-4-His; not shown: His tag
T2 sequence: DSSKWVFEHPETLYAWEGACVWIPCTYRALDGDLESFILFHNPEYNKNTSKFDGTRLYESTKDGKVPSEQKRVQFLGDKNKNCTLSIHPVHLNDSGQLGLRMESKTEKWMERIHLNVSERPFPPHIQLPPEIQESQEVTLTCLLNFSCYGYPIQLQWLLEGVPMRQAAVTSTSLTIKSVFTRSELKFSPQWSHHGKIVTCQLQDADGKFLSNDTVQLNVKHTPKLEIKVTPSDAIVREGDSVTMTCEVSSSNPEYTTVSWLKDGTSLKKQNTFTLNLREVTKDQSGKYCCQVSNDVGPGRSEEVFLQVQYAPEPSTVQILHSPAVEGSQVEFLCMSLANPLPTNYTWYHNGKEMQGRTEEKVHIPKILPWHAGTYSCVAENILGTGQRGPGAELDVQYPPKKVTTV

[2] = biological target: T3, rhesus monkey CD22-ECD-His protein (rhesus monkey, UniProt H9G1X2 18-686); test: SPR (Biacore), antibody captured on Protein A chip, rhesus CD22 in solution
T3 construct: extracellular domain; also called monkey CD22 protein
T3 sequence: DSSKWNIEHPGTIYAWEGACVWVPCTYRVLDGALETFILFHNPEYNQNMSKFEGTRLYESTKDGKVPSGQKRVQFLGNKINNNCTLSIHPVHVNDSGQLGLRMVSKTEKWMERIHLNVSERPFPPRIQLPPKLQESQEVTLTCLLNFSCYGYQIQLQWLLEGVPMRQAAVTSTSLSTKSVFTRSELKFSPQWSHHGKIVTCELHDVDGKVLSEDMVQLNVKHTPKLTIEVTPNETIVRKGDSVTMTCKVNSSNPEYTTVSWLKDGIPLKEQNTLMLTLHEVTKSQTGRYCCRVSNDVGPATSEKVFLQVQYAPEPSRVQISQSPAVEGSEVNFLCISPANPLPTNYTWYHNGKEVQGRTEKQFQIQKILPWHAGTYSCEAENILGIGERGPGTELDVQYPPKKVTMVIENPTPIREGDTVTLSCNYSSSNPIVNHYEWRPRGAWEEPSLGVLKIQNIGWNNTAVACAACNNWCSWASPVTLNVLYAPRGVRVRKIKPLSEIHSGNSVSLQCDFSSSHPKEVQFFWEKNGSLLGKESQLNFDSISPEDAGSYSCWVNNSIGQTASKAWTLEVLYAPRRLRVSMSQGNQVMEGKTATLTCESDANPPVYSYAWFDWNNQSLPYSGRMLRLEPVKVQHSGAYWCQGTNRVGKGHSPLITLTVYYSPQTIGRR

B1: F1.200.11 (antibody, human IgG1, kappa, V domains shown)
VH: QNQLVQSGPELKKPGETVKISCKASGYTFTTAGMQWVQKMPGKGFKWIGWINTLSGEPKYAEDFKGRFAFSLETSATTAYLQISNLKNEDTATYFCARAYYSNLYWYFDVWGTGTTVTVSS
VL: DIVMTQSQKFMSTTVGDRVTITCKASQNVVTAVAWYQQKPGQSPKVLIYSASNRYSGVPDRFTGSGSGTDFTLTISNMHSEDLANYFCHQYSSYPFTFGSGTKLEIKR
notes: Chimeric IgG1 kappa
Kd [1]: 102 nM
koff [1]: 0.00102 s⁻¹
kon [1]: 9980 M⁻¹ s⁻¹
binding result (human CD22 domain1-4-His): no binding
Kd [2]: 44.2 nM
koff [2]: 0.000596 s⁻¹
kon [2]: 13500 M⁻¹ s⁻¹

B2: F2.151.13 (antibody, human IgG1, lambda, V domains shown)
VH: QVHLQQPGTELMKPGASVKLSCKATGYTFRDYWLEWVKQRPGHGLEWIGEILPGSGNAYYNEKFKGKATFTADTSSNTAYMQLSSLTTEDSAIYYCARVYSNWYFDAWGKGTTVTVSS
VL: QAVVTQESALTTSPGETVTLTCRSSTGAVTTSNYANWVQEKPDHLFTGLIGGTNNQAPGVPARFSGSLIGDKAALTISGAQTEDEAIYFCALWFSNHWVFGGGTKLTVLG
notes: Chimeric IgG1 lambda
Kd [1]: 22.7 nM
koff [1]: 0.000533 s⁻¹
kon [1]: 23500 M⁻¹ s⁻¹
binding result (human CD22 domain1-4-His): no binding
Kd [2]: 27.5 nM
koff [2]: 0.000528 s⁻¹
kon [2]: 19200 M⁻¹ s⁻¹

B3: F1.105.11 (antibody, human IgG1, kappa, V domains shown)
VH: EVQLQQSGPVLVKPGASVKMSCKASGYTFSDYFMNWVKQSHGKSLEWIGIINSYSGGTSYNQKFKGKATLTVDKSSSTAYMELNSLTSEDSAVYYCARWMDYWGQGTSVTVSS
VL: DVQITQSPSYLAASPGETITINCRTSESISKHLAWYQEKPGKTNKLLIYSGSTLQSGIPSRFSGSGSGTDFTLTISSLEPEDFAMYYCQQHNEYPWTFGGGTKLEIKR
notes: Chimeric IgG1 kappa
Kd [1]: 0.514 nM
koff [1]: 0.000154 s⁻¹
kon [1]: 299000 M⁻¹ s⁻¹
binding result (human CD22 domain1-4-His): no binding
Kd [2]: 17.3 nM
koff [2]: 0.000448 s⁻¹
kon [2]: 25900 M⁻¹ s⁻¹

B4: F1.192.1 (antibody, human IgG1, kappa, V domains shown)
VH: AVQLQQSGVELVRPGASVKLSCTGSDFNIKEDYIHWVKQRPEQGLEWIGWIDPENGDTEYASKFQGKATITADTSSNTAYLQLSSLTSEDTAVYYCATYGSLDYWGQGTTLTVSS
VL: DIKMTQSPSSMYAFLGERVTITCKASQGINSFLTWFQQKPGKSPKTLIYRANRLVDGVPSRFSGSGSGQDYSLTISSLEYEDVGIYYCLQYDEFPRTFGGGTKLEIKR
notes: Chimeric IgG1 kappa
Kd [1]: 1.08 nM
koff [1]: 0.000244 s⁻¹
kon [1]: 225000 M⁻¹ s⁻¹
binding result (human CD22 domain1-4-His): no binding
Kd [2]: 23.1 nM
koff [2]: 0.0016 s⁻¹
kon [2]: 69200 M⁻¹ s⁻¹

Reference: patent US20240084003A1 (SIMCERE ZAIMING PHARMACEUTICAL, published 2024)
